Data set [1] addresses Concanavalin A. Description: resistive pulse sensing with PLY nanopores.
Data set [2] deals with the molecule itself.

Values joined by “and” are separate entries in the source; they are usually repeats but may differ in a detail not shown here. Equal entries are not always repeated.

In general, stoichiometry N refers to a count of units in the complex or per binding partner. On to Concanavalin A (natural protein), for which, in data set [1], the stoichiometry N is 2 and 4.

B1: Pneumolysin (PLY) toxin (natural protein)
chain: MANKAVNDFILAMNYDKKKLLTHQGESIENRFIKEGNQLPDEFVVIERKKRSLSTNTSDISVTATNDSRLYPGALLVVDETLLENNPTLLAVDRAPMTYSIDLPGLASSDSFLQVEDPSNSSVRGAVNDLLAKWHQDYGQVNNVPARMQYEKITAHSMEQLKVKFGSDFEKTGNSLDIDFNSVHSGEKQIQIVNFKQIYYTVSVDAVKNPGDVFQDTVTVEDLKQRGISAERPLVYISSVAYGRQVYLKLETTSKSDEVEAAFEALIKGVKVAPQTEWKQILDNTEVKAVILGGDPSSGARVVTGKVDMVEDLIQEGSRFTADHPGLPISYTTSFLRDNVVATFQNSTDYVETKVTAYRNGDLLLDHSGAYVAQYYITWDELSYDHQGKEVLTPKAWDRNGQDLTAHFTTSIPLKGNVRNLSVKIRECTGLAWEWWRTVYEKTDLPLVRKRTISIWGTTLYPQVEDKVEND
As to B1, in data set [2], the “stoichiometry N” value was 35 ± 2 monomers.

(Values after doi:10.1101/2025.02.07.637128 (bioRxiv, 2025).)
